What was measured:
[1] = molecular target: endogenous TSHR on Graves' orbital fibroblasts (GOFs) (Homo sapiens) (UniProt P16473); assay: flow cytometry; conditions: Flow: DPBS, 5 mM MgCl2, 4.5 g/L glucose, 0.1 mg/mL yeast tRNA, 1 mg/mL BSA, 4 C 30 min; SPR: DPBS, 5 mM Mg2+, pH 7.4, 25 C
[2] = molecular target: TSHR on TSHR-293T cells (Homo sapiens) (UniProt P16473); assay: flow cytometry; conditions: Flow: DPBS, 5 mM MgCl2, 4.5 g/L glucose, 0.1 mg/mL yeast tRNA, 1 mg/mL BSA, 4 C 30 min; SPR: DPBS, 5 mM Mg2+, pH 7.4, 25 C
Sequence of TSHR on TSHR-293T cells (Homo sapiens) (P16473 21-764): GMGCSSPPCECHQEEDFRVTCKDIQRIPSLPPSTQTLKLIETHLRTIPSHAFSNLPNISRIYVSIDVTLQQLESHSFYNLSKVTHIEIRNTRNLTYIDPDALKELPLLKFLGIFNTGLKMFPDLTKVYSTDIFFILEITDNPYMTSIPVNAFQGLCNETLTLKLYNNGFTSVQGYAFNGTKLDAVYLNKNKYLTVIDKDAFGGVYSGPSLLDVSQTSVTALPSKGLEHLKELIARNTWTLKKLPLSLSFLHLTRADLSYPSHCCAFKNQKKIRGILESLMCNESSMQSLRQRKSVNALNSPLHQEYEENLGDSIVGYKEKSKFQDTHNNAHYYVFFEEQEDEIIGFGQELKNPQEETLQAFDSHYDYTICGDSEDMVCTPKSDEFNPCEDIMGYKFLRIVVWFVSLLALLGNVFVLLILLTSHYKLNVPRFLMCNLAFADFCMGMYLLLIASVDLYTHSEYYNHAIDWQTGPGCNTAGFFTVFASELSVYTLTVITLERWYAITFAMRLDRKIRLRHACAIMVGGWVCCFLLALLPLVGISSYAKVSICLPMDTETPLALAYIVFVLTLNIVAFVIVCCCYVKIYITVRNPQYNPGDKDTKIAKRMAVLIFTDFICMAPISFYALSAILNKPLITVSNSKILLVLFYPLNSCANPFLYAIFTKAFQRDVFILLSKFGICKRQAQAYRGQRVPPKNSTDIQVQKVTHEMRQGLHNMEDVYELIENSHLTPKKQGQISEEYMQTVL

Sequence of endogenous TSHR on Graves' orbital fibroblasts (GOFs) (Homo sapiens) (P16473 21-764): as above

## ACCGACCGTGCTGGACTCAGATGAACAATCGATGGAAGATTGGGTCGCACCGGCCTCTTTCACTATGAGCGAGCCTGGCG [YC3]
[1]
  Kd: 99.2 nM
[2]
  Kd: 260 nM

Reference: paper PMC12822413
